Assay results reported in patent US9260507B2, “Peptide promoting cell adhesion and migration” (Symatese, priority 2009, dated 2016).
Ends that are not written are not given here. * marks the point of attachment. Biotin = O=C1N[C@H]2[C@H](CS[C@H]2CCCCC(=O)*)N1

T1: syndecan-1 (Homo sapiens, UniProt P18827)
T1 construct: endogenous in cells; host or cells: primary normal human keratinocytes from foreskin biopsies
T1 sequence (P18827 23-310): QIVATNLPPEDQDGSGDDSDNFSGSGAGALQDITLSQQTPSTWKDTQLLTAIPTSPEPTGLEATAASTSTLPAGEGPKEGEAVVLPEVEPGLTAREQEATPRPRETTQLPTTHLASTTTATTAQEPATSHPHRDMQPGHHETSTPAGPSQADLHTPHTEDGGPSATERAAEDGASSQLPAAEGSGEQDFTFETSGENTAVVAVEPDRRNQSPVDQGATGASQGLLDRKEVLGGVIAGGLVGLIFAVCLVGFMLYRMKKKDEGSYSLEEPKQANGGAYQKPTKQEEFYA

T2: syndecan-1 from lysates of normal human keratinocytes or normal human fibroblasts (human, UniProt P18827 23-310, limits assumed, carries heparan sulphate and chondroitin sulphate chains during binding; stripped with heparitinase I and chondroitinase ABC before the immunoblot)
T2 construct: Endogenous proteoglycan of cell lysates; also called syndecan-1 receptor
T2 sequence (looked up): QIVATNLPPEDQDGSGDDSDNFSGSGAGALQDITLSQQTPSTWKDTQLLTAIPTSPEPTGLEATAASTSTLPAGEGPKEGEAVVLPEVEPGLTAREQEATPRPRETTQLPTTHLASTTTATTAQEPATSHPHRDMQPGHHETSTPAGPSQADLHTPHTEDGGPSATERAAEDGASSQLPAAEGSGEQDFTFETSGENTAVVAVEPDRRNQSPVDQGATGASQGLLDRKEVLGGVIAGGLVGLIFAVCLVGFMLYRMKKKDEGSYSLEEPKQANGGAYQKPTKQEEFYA


Key:
[1] = system: normal human keratinocytes; assay: Cell viability test (XTT); conditions: 100 to 1 μg/ml, medium renewed every two days (repeated twice)
Experimental: NHKs were seeded in 96-well plates at 10^4 cells per well. After 24 hours, the culture media were removed and replaced with KBM-2 medium containing the concentrations of peptide [sequence] (SEQ ID NO: 1) (upper curve) or LG4/5 protein (lower curve) shown. After 48 h of contact at 37° C. the media were removed and this step was repeated twice. After 48 h of contact at 37° C. the media were replaced by XTT reagent. The plates were then placed in an incubator at 37° C. and the absorption was read after 6 hours. Controls with neither peptide nor protein were made on the same plate.
The effect of the peptide on the cell viability of the normal human keratinocytes was analysed using a colorimetric assay (XTT Cell Proliferation Kit, Roche Diagnostics, Meylan, France). A control with the LG4/5 protein was carried out in parallel. The chemical reaction of the test is based on the production of NADPH in living cells reducing yellow tetrazolium XTT salts to orange formazan salts. Absorption at 490 nm is measured using an ELISA plate reader. […] In this case, cell viability was calculated from the formula: % viability=(Abs. cells with peptide/Abs. control cells)×100.

syndecan-1 = target: T1, syndecan-1; assay: Affinity chromatography (pull-down) with peptide-coated beads and syndecan-1 immunodetection; assay type: binding; conditions: lysate of normal human keratinocytes, 2 mg; immunoblotting with antibody H174
Experimental: (A) A lysate of normal human keratinocytes was prepared as described in the Materials and Methods section and 2 mg of the lysate were incubated with neutravidin beads not coated or coated with the biotinylated peptides KKLRIKSKEK (SEQ ID NO: 1), PSGKPKSLP (SEQ ID NO: 19) and TSVTPKQSL (SEQ ID NO: 20). After washing, the material bound to the beads was digested with a mixture of heparitinase I and chondroitinase ABC to release the protein part of the syndecan-1 from the glycosaminoglycans. The samples were then analysed by SDS PAGE electrophoresis in an 8% acrylamide gel under non-reducing conditions and by immunoblotting with polyclonal anti-syndecan antibody H174. (B) A lysate of normal human keratinocytes was prepared and 2 mg of the lysate were incubated with neutravidin beads not coated or coated with the biotinylated peptide KKLRIKSKEK (SEQ ID NO: 1), or with sepharose beads coated with the whole LG4/5 fragment. After washing, the material bound to the beads was digested with a mixture of heparitinase I and chondroitinase ABC to release the protein part of the syndecan-1 from the glycosaminoglycans. The samples were then analysed by SDS PAGE electrophoresis in an 8% acrylamide gel under non-reducing conditions and by immunoblotting with polyclonal anti-syndecan antibody H174. (A, B) The position of molecular weight markers is shown on the left.
(§1) A series of point mutations was introduced into the peptide KKLRIKSKEK (SEQ ID NO: 1) by successively replacing each amino acid by an alanine (A). […] The samples were then analysed by SDS PAGE electrophoresis in an 8% acrylamide gel under non-reducing conditions and by immunoblotting with polyclonal anti-syndecan antibody H174. […]
as §1, with “point or multiple” for “point”, “by” for “by successively”, “one or more lysines (K)” for “each amino acid”, “a glutamine (Q).” for “an alanine (A).”

HT1080 cells = assay: Cell adhesion test (crystal violet colorimetric) on immobilised peptide, HT1080 cells; assay type: cell-based, Human; conditions: microscopy, FIG. 6B
Experimental: (A, B) Dose-dependent adhesion of normal human keratinocytes and cells of the HT1080 strain to the peptide KKLRIKSKEK (SEQ ID NO: 1) and to the LG4/5 protein. The peptide (A) and the protein LG4/5 (B) were immobilised on 96-well plates at the concentrations indicated on the abscissa. 6·10^4 cells were deposited in each well and the plates were incubated at 37° C. for 1 hour. After washing, the adherent cells were fixed and cell adhesion was measured as described in the methodology section. (C) Observation of normal human keratinocytes and HT1080 cells adhering to KKLRIKSKEK peptide (SEQ ID NO: 1) and to the LG4/5 protein. The observation was made with a Zeiss Axiovert 40 microscope equipped with a PlasDic interference unit. 50 μm bar.
(A) A decreasing range of peptides KKLRIKSKEK (SEQ ID NO: 1) and NSFMALYLSKGR (SEQ ID NO: 21) was immobilised in 96-well Microlon plates and the amount actually adsorbed was determined by protein assay with reference to a corresponding range of peptides made extemporaneously. The quantities of peptide tested are indicated on the abscissa of the graph. 6·10^4 cells were deposited in each well and the plates were incubated at 37° C. for 1 hour. After washing, the adherent cells were fixed and cell adhesion was measured as described in the methodology section. […]

[2] = target: T2, syndecan-1 from lysates of normal human …; assay: pull-down from normal human keratinocyte lysate, immunoblot with H174
Experimental: To identify the nature of the cell receptor binding to the peptide […] (SEQ ID NO: 1), affinity chromatography or 'pull-down' assays were performed by incubating beads coated with peptides with cell lysates. Lysates of primary keratinocytes or fibroblasts were made using a lysis buffer of 1% triton X-100 in PBS, pH 7.5, containing N-ethylmaleimide and phenylmethylsulphonylfluoride 50 mM. The wild type peptide […] (SEQ ID NO: 1) and the mutated peptides were bound to biotin at their amino-terminal ends and 100 µg of each biotinylated peptide were attached to agarose-neutravidin beads (Perbio Science, Bezons, France) by incubation for 16 hours at +4° C. The beads were then incubated with 2 mg of cell lysate for 2 hours at +4° C. After washing 3 times with the lysis buffer, the beads were transferred into a digestion buffer (20 mM sodium acetate, 5 mM CaCl2, pH 7.0) containing 8 mU/ml heparitinase I and 50 mU/ml of chondroitinase ABC (Seikagaku America, Coger, Paris, France) for 2 hours at 25° C. This treatment strips the protein part of syndecan-1 of glycosaminoglycans, making it easier to analyse by immunoblotting. The samples were then analysed by SDS PAGE electrophoresis in an 8% acrylamide gel under non-reducing conditions and by immunoblotting with polyclonal anti-syndecan antibody H174 (Santa Cruz Biotechnology, Le Perray en Yvelines, France).

Molecule	Binding of syndecan-1 to the biotinylated peptide on beads (syndecan-1)	binding result [2]	other results
KKLRIKSKEK [KKLRIKSKEK]	–	–	Cytotoxic effect on epidermal keratinocytes (percentage of viable cells vs controls) [1]: neither peptide KKLRIKSKEK (SEQ ID NO: 1) nor protein LG4/5 has any long-term cytotoxic effect
KKLRLRSKER [M2, from the murine laminin alpha3 chain]	proved capable of binding syndecan-1	–	–
NSFMALYLSKGR	–	–	Morphology of HT1080 cells adhering to the peptide (HT1080 cells): no cytoplasmic prolongations were noted
PSGKPKSLP	did not retain the syndecan-1	–	–
TSVTPKQSL	did not retain the syndecan-1	–	–
PSGKPKSLP (also: biotinylated) [biotinylated peptide PSGKPKSLP (SEQ ID NO: 19)]	–	no binding	–

The next lines start with results.

Binding of syndecan-1 to the biotinylated peptide on beads (syndecan-1)	binding result [2]	Molecule	other results
–	no binding	Biotin-KKLRIKAKEK [mutated peptide A7 (alanine in place of amino acid 7 of …)]	–
–	no binding	TSVTPKQSL (also: biotinylated) [biotinylated peptide TSVTPKQSL (SEQ ID NO: 20)]	–
–	no binding	Biotin-AKLRIKSKEK [mutated peptide A1 (alanine in place of amino acid 1 of …)]	–
–	no binding	Biotin-KKLAIKSKEK [mutated peptide A4 (alanine in place of amino acid 4 of …)]	–
